Columns and labels:
[1] = target: T1, human DLL4 extracellular domain protein, His-tagged (R&D System Cat: 1506-D4/CF) (human, UniProt Q9NR61 27-522); test: SPR (Biacore T200), hDLL4 immobilised on a CM5 chip, antibody as analyte; the table says 'Bivalent binding'
T1 construct: range 27-522; Bought protein; also called hDLL4-His; human DLL4-His; not shown: C-terminal histidine tag
Procedure: To be specific, Biacore T200 was used in SPR analysis and HBS-EP (10 mM HEPES, pH7.4, 150 mM NaCl, 3 mM EDTA, 0.15% surfactant P20) was used as a running buffer. Surface preparation was done by using a surface preparation target immobilization tool of a wizard program (condition: 25° C., 5 μl/min). A ligand, hDLL4, was diluted in 10 mM sodium acetate (pH 4.5) to a final concentration of 10 μg/ml, and then immobilized to the surface of CM5 chip by a target immobilization level for each test group. In the immobilization process, two flow cells were included as one set wherein the first flow cell was set as a blank and the second flow cell has hDLL4 immobilized to the surface thereof in the present experiment. The first flow cell acted as a reference to account for experimental variability due to nonspecific bindings and buffer effects, and in the analysis, subtracted RU values (Fc2-Fc1) were used as experimental results. Anti-DLL4 antibodies that bind to hDLL4, i.e., MLCK1, MLCK2, MLCK-3, and MLCK4, were diluted in a running buffer to a final molar concentration of 100 nM, serially diluted 5 times, and each of the 5 dilutions was analyzed. The sample to be analyzed was prepared to have high purity and high concentration, enough to be diluted more than 100 times at minimum, thereby minimizing buffer effect. All analysis was done by using a wizard program, screening duplicates for each sample and a regeneration step was included in between each analysis step, so that the standard of experiment remains constant. The experimental results were analyzed by Biaevaluation software version 4.0. At this time, to determine the RU values (Fc2-Fc1 and Fc4-Fc3), the baseline was set to zero, the value measured at a buffer injection part (analyte, 0 nM) was subtracted from a whole sensorgram. […] The factors to be analyzed include kₐ(M⁻¹s⁻¹), kd(s⁻¹), Kₐ(1/M), and KD(M). […] Equilibrium dissociation constant KD(M) was calculated by dividing kd with kₐ (kd/kₐ).

[2] = target: T1, human DLL4 extracellular domain …; test: ELISA solution competition: antibody premixed with DLL4-His; blocks binding to plate-coated hNotch-1-hFc
Procedure: Each well of a 96-well microtiter plate (Nunc-Immuno Plate, NUNC, Rochester, N.Y.) was coated with 100 μl of 500 ng/ml of hNotch-1-hFc protein (R&D Systems) (diluted in PBS) at 4° C. overnight, and non-specific binding sites were blocked with BSA for 2 hours.
The anti-DLL4 antibody (purified protein) on the 96-well microtiter plate was premixed with serial dilutions of antigen protein (DLL4 antigen, 600 ng/m) at an antibody concentration ranging from 0 nM to 140 nM. The antigen/antibody mixture was incubated for 30 minutes, and then transferred to a microtiter plate precoated with the DLL4 receptor hNotch-1 protein (50 ng/well) in order to measure free antibody. Then, the plate was incubated for 2 hours and washed five times with 0.05% tween 20-containing PBS. In order to detect the DLL4 antigen bound to the plate, an HRP-conjugated His anti-mouse IgG polyclonal antibody reagent (Roche applied science) was diluted at a ratio of 1:500, and the washed microtiter plate was treated with the diluted antibody reagent, and then allowed to react at 37° C. for 1 hour. Then, color development was performed using a colorimetric substrate (3,3′,5,5′-tetramethylbenzidine; Sigma-Aldrich Co.), and the enzymatic reaction was stopped using 0.5 mol/l of sulfuric acid. The amounts of antibodies required to achieve a 50% decrease in human DLL4-His bound to plate-coated Notch 1-Fc (IC₅₀) are shown in Table 1 below.

[3] = target: T1, human DLL4 extracellular domain …; test: ELISA, plate coated with hDLL4-His 2 ug/ml, bound antibody detected with HRP-conjugated anti-Fab
Procedure: The anti-DLL4 antibody-antigen binding affinity was evaluated using an ELISA-based binding test. A 96-well microtiter plate (Nunc-Immuno Plate, NUNC, Rochester, N.Y.) was coated with 2 μg/ml of hDLL4-His protein in PBS solution at 4° C. overnight, and non-specific binding sites were blocked with BSA (bovine serum albumin) for 2 hours. The anti-DLL4 antibody (purified protein) on the 96-well microtiter plate was transferred to a microtiter plate at an antibody concentration ranging from 0 nM to 128 nM. Then, the plate was incubated for 2 hours, after which the plate was washed five times with 0.05% tween 20-containing PBS, and in order to detect the plate-bound DLL4 antibody, an HRP-conjugated Fab polyclonal antibody reagent (Pierce) was diluted at a ratio of 1:10,000, transferred to the washed microtiter plate, and then allowed to react at 37° C. for 1 hour. After the reaction, color development was performed using a colorimetric substrate (3,3′,5,5′-tetramethylbenzidine; Sigma-Aldrich Co.). The enzymatic reaction was stopped using 0.5 mol/l of sulfuric acid, and the absorbance at 450 nm-650 nm was recorded using a microplate reader (molecular device). As a result, it was shown that the binding affinities of the antibodies for DLL4 increased in a concentration-dependent manner (FIG. 2).

[4] = target: T1, human DLL4 extracellular domain …; test: SPR (Biacore T200), hDLL4 immobilized on CM5 chip, antibody as analyte, 1:1 model
Procedure: To be specific, Biacore T200 was used in SPR analysis and HBS-EP (10 mM HEPES, pH7.4, 150 mM NaCl, 3 mM EDTA, 0.15% surfactant P20) was used as a running buffer. Surface preparation was done by using a surface preparation target immobilization tool of a wizard program (condition: 25° C., 5 μl/min). A ligand, hDLL4, was diluted in 10 mM sodium acetate (pH 4.5) to a final concentration of 10 μg/ml, and then immobilized to the surface of CM5 chip by a target immobilization level for each test group. In the immobilization process, two flow cells were included as one set wherein the first flow cell was set as a blank and the second flow cell has hDLL4 immobilized to the surface thereof in the present experiment. The first flow cell acted as a reference to account for experimental variability due to nonspecific bindings and buffer effects, and in the analysis, subtracted RU values (Fc2-Fc1) were used as experimental results. Anti-DLL4 antibodies that bind to hDLL4, i.e., MLCK1, MLCK2, MLCK-3, and MLCK4, were diluted in a running buffer to a final molar concentration of 100 nM, serially diluted 5 times, and each of the 5 dilutions was analyzed. The sample to be analyzed was prepared to have high purity and high concentration, enough to be diluted more than 100 times at minimum, thereby minimizing buffer effect. All analysis was done by using a wizard program, screening duplicates for each sample and a regeneration step was included in between each analysis step, so that the standard of experiment remains constant. The experimental results were analyzed by Biaevaluation software version 4.0. At this time, to determine the RU values (Fc2-Fc1 and Fc4-Fc3), the baseline was set to zero, the value measured at a buffer injection part (analyte, 0 nM) was subtracted from a whole sensorgram. Then, the resulting RU value was analyzed by a 1:1 binding model to determine a binding affinity. The factors to be analyzed include kₐ(M⁻¹s⁻¹), kd(s⁻¹), Kₐ(1/M), and KD(M). […] Equilibrium dissociation constant KD(M) was calculated by dividing kd with kₐ (kd/kₐ).

[5] = target: T2, human DLL4 stably expressed on HEK 293 cells (human, UniProt Q9NR61 27-685); test: flow cytometry on HEK293 cells stably expressing human DLL4, 10 ug antibody
T2 construct: whole, on cells; also called human DLL4 antigen
T2 sequence (Q9NR61 27-685): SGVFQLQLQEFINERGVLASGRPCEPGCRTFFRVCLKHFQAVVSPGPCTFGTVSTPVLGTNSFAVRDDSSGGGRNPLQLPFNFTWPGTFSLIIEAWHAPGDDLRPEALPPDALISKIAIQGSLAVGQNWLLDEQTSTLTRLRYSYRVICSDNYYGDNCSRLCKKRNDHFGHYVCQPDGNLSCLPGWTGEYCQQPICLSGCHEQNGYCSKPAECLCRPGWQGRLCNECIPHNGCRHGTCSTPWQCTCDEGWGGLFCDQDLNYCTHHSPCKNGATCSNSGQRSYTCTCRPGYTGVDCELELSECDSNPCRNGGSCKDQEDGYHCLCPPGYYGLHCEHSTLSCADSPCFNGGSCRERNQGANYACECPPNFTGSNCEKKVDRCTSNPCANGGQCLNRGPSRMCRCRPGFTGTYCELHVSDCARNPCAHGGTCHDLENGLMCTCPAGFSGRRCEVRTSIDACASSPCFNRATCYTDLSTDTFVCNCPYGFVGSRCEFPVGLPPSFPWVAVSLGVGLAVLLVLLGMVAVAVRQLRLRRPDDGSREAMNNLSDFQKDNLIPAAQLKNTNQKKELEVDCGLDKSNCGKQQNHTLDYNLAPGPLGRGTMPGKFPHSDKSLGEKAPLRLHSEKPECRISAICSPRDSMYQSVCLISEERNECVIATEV
Procedure: Specifically, human embryonic kidney cells (HEK 293) that stably express human DLL4 were prepared, and the degree of binding of the anti-DLL4 antibodies to DLL4 was measured using the prepared cells and a FACSCalibur system (BD Biosciences). The HEK293 cells that stably expressed DLL4 were dissociated, washed with PBS, adjusted to a cell number of 1×10⁵ cells/200 μl PBS, treated with 10 μg of each of the DLL4 monoclonal antibodies, and then allowed to react at room temperature for 30 minutes. After the reaction, the cells were washed with PBS and reacted with an FITC-labeled Fc-specific antibody (goat anti-human IgG FITC conjugate, Fc specific, Sigma, F9512; concentration: 2.0 mg/ml) at a concentration of 5 μl/1×10⁵ cells/200 μl PBS at 4° C. for 1 hours. After the reaction, the cells were washed with PBS and analyzed using a FACSCalibur system. A control group was treated only with an FITC-labeled Fc-specific antibody. The results of analysis of human DLL4-minoclonal antibody-FITC binding in the test group treated with each of the DLL4 monoclonal antibodies were compared with those in the control group.

T1 sequence (Q9NR61 27-522 limits assumed): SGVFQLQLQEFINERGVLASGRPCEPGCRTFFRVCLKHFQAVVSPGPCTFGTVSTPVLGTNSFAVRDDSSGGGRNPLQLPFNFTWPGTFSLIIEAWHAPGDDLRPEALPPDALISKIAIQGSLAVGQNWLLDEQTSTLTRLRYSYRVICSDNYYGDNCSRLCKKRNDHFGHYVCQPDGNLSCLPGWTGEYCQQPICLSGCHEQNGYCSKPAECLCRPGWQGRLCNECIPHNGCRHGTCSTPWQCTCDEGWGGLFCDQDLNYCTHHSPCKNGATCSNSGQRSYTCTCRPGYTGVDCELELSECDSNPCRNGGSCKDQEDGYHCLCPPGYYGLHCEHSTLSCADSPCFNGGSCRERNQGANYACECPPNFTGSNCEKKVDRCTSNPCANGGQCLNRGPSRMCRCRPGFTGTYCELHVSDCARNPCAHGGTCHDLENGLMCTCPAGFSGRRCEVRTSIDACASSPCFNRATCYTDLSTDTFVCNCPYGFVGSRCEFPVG

B1: MLCK-1 (antibody, V domains shown)
VH: EVQLLESGGGLVQPGGSLRLSCAASGFTFSDYAMSWVRQAPGKGLEWVSWIYSDDGNKYYADSVKGRFTISRDNSKNTLYLQMNSLRAEDTAVYYCARADPPFDYWGQGTLVTVSS
VL: QSVLTQPPSASGTPGQRVTISCTGSSSNIGSNNVSWYQQLPGTAPKLLIYSDNNRPSGVPDRFSGSKSGTSASLAISGLRSEDEADYYCATWDSSLNGYVFGGGTKLTVL
notes: Human monoclonal antibody from a phage scFv library; Only the variable regions are tied to the clone; In flow cytometry it was detected with an anti-human IgG Fc-specific antibody, so it carries a human Fc; also called anti-DLL4 antibody
Q: What does the source list for B1?
A: Ka [1]: 3.8e+06 M⁻¹; koff [1]: 0.0169 s⁻¹; kon [1]: 64100 M⁻¹ s⁻¹; IC50 [2]: 1.32 nM; EC50 (read off the curve) [3]: ~0.1 pM; Kd [4]: 263 nM; degree of binding to DLL4 antigen compared to the control group [5]: 47.8%

B2: MLCK-3 (antibody, V domains shown)
VH: EVQLLESGGGLVQPGGSLRLSCAASGFTFSDYAMSWVRQAPGKGLEWVSWIYYDSGSKYYADSVKGRFTISRDNSKNTLYLQMNSLRAEDTAVYYCARADLPFDYWGQGTLVTVSS
VL: QSVLTQPPSASGTPGQRVTISCSGSSSNIGNNAVTWYQQLPGTAPKLLIYSDNHRPSGVPDRFSGSKSGTSASLAISGLRSEDEADYYCGTWDASLSGYVFGGGTKLTVL
notes: as for B1
Q: With B2 as the binder, how does the Ka [1] read?
A: The Ka was 1.44e+08 M⁻¹.

Q: What about the koff [1] of the same binder?
A: The koff was 0.00359 s⁻¹.

Q: And the kon [1]?
A: Its kon is 516000 M⁻¹ s⁻¹.

Q: What about the IC50 [2] of the same binder?
A: Its IC50 is 0.38 nM.

Q: And the “EC50 (read off the curve)” value [3]?
A: The value was about 0.05 pM.

Q: And the Kd [4]?
A: The Kd was 6.96 nM.

Q: What about the “degree of binding to DLL4 antigen compared to the control group” value [5] of the same binder?
A: The value was 52.9%.

B3: MLCK-2 (antibody, V domains shown)
VH: EVQLLESGGGLVQPGGSLRLSCAASGFTFSDYAMSWVRQAPGKGLEWVSWIYSGSGNKYYADSVKGRFTISRDNSKNTLYLQMNSLRAEDTAVYYCARADWPFDYWGQGTLVTVSS
VL: QSVLTQPPSASGTPGQRVTISCTGSSSNIGSNDVTWYQQLPGTAPKLLIYADSKRPSGVPDRFSGSKSGTSASLAISGLRSEDEADYYCGTWDYSLSAYVFGGGTKLTVL
notes: Human monoclonal antibody from a phage scFv library; Only the variable regions are tied to the clone; In flow cytometry it was detected with an anti-human IgG Fc-specific antibody, so it carries a human Fc; also called MLCK-2 mAb; anti-DLL4 antibody
Q: B3 was tested. Which Ka [1] did it give?
A: Its Ka is 5.86e+08 M⁻¹.

Q: What about the koff [1] of the same binder?
A: Its koff is 0.000232 s⁻¹.

Q: And the kon [1]?
A: The kon was 136000 M⁻¹ s⁻¹.

Q: What about the IC50 [2] of the same binder?
A: The IC50 was 0.41 nM.

Q: And the “EC50 (read off the curve)” value [3]?
A: Its value is about 0.04 pM.

Q: And the Kd [4]?
A: Its Kd is 1.71 nM.

Q: And the “degree of binding to DLL4 antigen compared to the control group” value [5]?
A: The value was 59%.

B4: MLCK-4 (antibody, V domains shown)
VH: EVQLLESGGGLVQPGGSLRLSCAASGFTFSNYAMSWVRQAPGKGLEWVSWIYHGGGDTYYADSVKGRFTISRDNSKNTLYLQMNSLRAEDTAVYYCARGPNYTFGKPFDYWGQGTLVTVSS
VL: QSVLTQPPSASGTPGQRVTISCRGSPSNIGNNTVYWYQQLPGTAPKLLIYSDSQRPSGVPDRFSGSKSGTSASLAISGLRSEDEADYYCGSWDYSLSAYVFGGGTKLTVL
notes: as for B1
Q: What does the source list for B4?
A: Ka [1]: 469000 M⁻¹; koff [1]: 0.00474 s⁻¹; kon [1]: 2220 M⁻¹ s⁻¹; IC50 [2]: 3.72 nM; EC50 (read off the curve) [3]: ~0.2 pM; Kd [4]: 2130 nM; degree of binding to DLL4 antigen compared to the control group [5]: 52.5%

— patent US20150183856A1 (ABLBIO, published 2015)
